Among the data in paper PMC8659110, “Preliminary Study of New Gallium-68 Radiolabeled Peptide Targeting NRP-1 to Detect Brain Metastases by Positron Emission Tomography” (Molecules, 2021) are IC50 and Kd values, retold here.

The target of assay [1] is T1, NRP-1 recombinant chimeric protein ( (recombinant human/rat NRP-1 …, UniProt O14786 22-856)).
T1 construct: 'Chimeric' probably means the supplier's Fc chimera; also called recombinant NRP-1 protein; the receptor; source: bought: Bio-techne
T1 sequence (looked up): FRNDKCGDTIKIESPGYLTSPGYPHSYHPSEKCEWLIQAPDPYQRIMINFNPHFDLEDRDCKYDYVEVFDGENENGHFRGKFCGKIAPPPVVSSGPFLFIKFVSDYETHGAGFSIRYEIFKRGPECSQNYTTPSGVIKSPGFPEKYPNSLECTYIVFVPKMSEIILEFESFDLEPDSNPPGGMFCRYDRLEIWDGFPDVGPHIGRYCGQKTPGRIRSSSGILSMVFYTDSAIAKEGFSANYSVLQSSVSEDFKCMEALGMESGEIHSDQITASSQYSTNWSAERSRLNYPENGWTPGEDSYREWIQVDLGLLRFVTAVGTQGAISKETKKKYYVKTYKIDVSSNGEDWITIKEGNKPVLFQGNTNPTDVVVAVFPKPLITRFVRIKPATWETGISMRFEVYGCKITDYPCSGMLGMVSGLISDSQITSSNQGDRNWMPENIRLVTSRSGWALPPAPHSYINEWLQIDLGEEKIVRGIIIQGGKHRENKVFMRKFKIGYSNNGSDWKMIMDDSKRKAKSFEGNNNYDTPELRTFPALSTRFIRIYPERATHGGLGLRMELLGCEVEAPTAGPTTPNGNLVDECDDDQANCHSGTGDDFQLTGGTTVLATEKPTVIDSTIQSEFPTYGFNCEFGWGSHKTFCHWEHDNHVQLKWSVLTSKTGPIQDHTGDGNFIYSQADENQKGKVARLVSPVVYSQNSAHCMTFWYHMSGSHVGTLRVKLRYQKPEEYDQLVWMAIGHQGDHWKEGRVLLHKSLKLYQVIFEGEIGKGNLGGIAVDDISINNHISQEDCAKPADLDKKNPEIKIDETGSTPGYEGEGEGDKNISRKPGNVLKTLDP
The experiment in a line: ELISA; competitive binding assay: NRP-1 recombinant chimeric protein coated on Maxisorp microplates; biotinylated VEGF-165 with heparin, with or without increasing concentrations of compounds; 2 h at room temperature; bound b-VEGF-165 detected with streptavidin-HRP, OD 450 nm; IC50 by one-site fit log-IC50. As to conditions: both partners purified.

Assay [2] concerns the target T2, recombinant rat NRP-1 protein (rat, UniProt Q9QWJ9 22-855).
T2 construct: neuropilin-1 (NRP-1), rat, recombinant; printed MW 119 kDa; also called neuropilin-1; source: bought: Bio-techne
T2 sequence (looked up): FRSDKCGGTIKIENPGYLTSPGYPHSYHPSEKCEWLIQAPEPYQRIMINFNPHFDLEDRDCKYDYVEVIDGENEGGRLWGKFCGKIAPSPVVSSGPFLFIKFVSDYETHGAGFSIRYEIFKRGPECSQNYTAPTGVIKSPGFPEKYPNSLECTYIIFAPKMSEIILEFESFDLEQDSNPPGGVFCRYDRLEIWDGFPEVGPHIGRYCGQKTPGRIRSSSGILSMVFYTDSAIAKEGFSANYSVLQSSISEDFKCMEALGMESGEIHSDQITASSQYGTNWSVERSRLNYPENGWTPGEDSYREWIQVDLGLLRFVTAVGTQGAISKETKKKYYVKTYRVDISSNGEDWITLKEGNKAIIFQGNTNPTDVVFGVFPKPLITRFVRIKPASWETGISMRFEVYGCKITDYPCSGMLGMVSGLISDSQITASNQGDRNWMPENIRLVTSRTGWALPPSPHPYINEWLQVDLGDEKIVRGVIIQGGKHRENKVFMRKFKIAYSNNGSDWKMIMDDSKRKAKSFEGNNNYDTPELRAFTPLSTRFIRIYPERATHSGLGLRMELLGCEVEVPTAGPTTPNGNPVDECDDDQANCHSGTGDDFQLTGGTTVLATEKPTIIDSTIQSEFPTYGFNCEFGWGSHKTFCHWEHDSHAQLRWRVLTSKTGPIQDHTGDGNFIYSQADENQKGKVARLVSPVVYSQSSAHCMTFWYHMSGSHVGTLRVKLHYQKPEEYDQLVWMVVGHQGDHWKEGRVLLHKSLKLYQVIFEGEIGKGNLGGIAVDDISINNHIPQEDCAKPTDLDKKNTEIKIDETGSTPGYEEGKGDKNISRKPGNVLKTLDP
The experiment in a line: SPR; Biacore T200, 25 °C; rat NRP-1 covalently immobilised on CM5 chip (10,000 RU), IgG1 reference surface (4000 RU); PBS with 0.05% P20, pH 7.4; compounds 0.60-10 µM (scrambled peptides 10 and 30 µM, VEGF 12.5-400 nM) at 30 µL/min for 300 s; equilibrium response fitted to a 1:1 model; mean of two experiments. As to conditions: both partners purified.

Primed or numbered codes have the meaning given here. Where no end group is shown, it is not given here. Cy5 = Cy5 fluorophore (fluorescent dye); NODAGA′ = chelator

B1: KRPKPD scramble peptide (peptide)
chain: H-KRPKPD-OH
Regarding B1, the IC50 in assay [1] was determined as 300 µM.

B2: KDKPPR peptide (peptide)
peptide: KDKPPR
notes: also called KDKPPR free peptide; KDKPPR alone; source: synthetic peptide (Fmoc/tBu solid phase on Fmoc-Arg(Pbf)-Wang resin, precipitated in cold diethyl ether)
Consider B2, for which the dissociation constant (Kd) in assay [2] is 7 µM.

B3: ^natGa-NODAGA-K(Cy5)DKPPR (peptide)
peptide: {NODAGA′}-K(Cy5)DKPPR
modifications: also: NODAGA complexed with natGa
notes: KDKPPR with ^natGa-NODAGA on the N-terminal amine and Cy5 on the side chain of the first lysine; source: synthetic peptide (Fmoc/tBu/Dde solid phase; complexed with ^natGa(NO3)3, purified by preparative HPLC)
In the case of B3, in assay [2], the Kd came out at 4 µM.

B4: ^natGa-NODAGA-K(Cy5)RPKPD (peptide)
peptide: {NODAGA′}-K(Cy5)RPKPD
modifications: also: NODAGA complexed with natGa
notes: scramble peptide KRPKPD with ^natGa-NODAGA on the N-terminal amine and Cy5 on the side chain of the first lysine; also called ^natGa-NODAGA-K(Cy5)scramble; source: synthetic peptide (Fmoc/tBu/Dde solid phase; complexed with ^natGa, purified by preparative HPLC)
As to B4, the IC50 in assay [1] came to 177 µM.

B5: K(Cy5)DKPPR (peptide)
peptide: K(Cy5)DKPPR
notes: KDKPPR with Cy5 on the side chain of the first lysine; source: synthetic peptide (solid phase with Fmoc-Lys(Cy5)-OH, purified by preparative HPLC)
B5: the dissociation constant Kd in assay [2] was 5 µM.
